This sample holds only a part of the variants without activity.
Assays:
biotinyl-Phe-oxazolone = experiment: self-aminoacylation, catalytic enhancement (BFO) (fold over background); higher = more active; k-Seq, kA / k0A0; sequences stand for … in GGGAAUGGAUCCACAUCUACGAAUUC…UUCACUGCAGACUUGACGAAGCUG
Outline: (§1)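 Mutagenized RNA pools with a 21-nt variable region (0.43 μM) were reacted with each biotinyl-aminoacyl-oxazolone at 2–1250 μM for 90 minutes at room temperature, in 50 μL HEPES/NaCl/KCl/MgCl2/CaCl2 buffer containing 5% acetonitrile at pH 6.9–7.0. RNA captured on streptavidin was quantified by triplicate qPCR and by Illumina sequencing. The fraction reacted for each sequence was fit to a pseudo-first-order model with bootstrapping, and catalytic enhancement is the median kA divided by the uncatalyzed rate, taken as the low-activity peak of a bimodal Gaussian fit.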

biotinyl-Ile-oxazolone = experiment: self-aminoacylation, catalytic enhancement (BIO) (fold over background); higher = more active; k-Seq, kA / k0A0; sequences stand for … in GGGAAUGGAUCCACAUCUACGAAUUC…UUCACUGCAGACUUGACGAAGCUG
Outline: as §1

biotinyl-Met-oxazolone = experiment: self-aminoacylation, catalytic enhancement (BMO) (fold over background); higher = more active; k-Seq, kA / k0A0; sequences stand for … in GGGAAUGGAUCCACAUCUACGAAUUC…UUCACUGCAGACUUGACGAAGCUG
Outline: as §1

biotinyl-Trp-oxazolone = experiment: self-aminoacylation, catalytic enhancement (BWO) (fold over background); higher = more active; k-Seq, kA / k0A0; sequences stand for … in GGGAAUGGAUCCACAUCUACGAAUUC…UUCACUGCAGACUUGACGAAGCUG
Outline: as §1

biotinyl-Val-oxazolone = experiment: self-aminoacylation, catalytic enhancement (BVO) (fold over background); higher = more active; k-Seq, kA / k0A0; sequences stand for … in GGGAAUGGAUCCACAUCUACGAAUUC…UUCACUGCAGACUUGACGAAGCUG
Outline: as §1

biotinyl-Leu-oxazolone = experiment: self-aminoacylation, catalytic enhancement (BLO) (fold over background); higher = more active; k-Seq, kA / k0A0; sequences stand for … in GGGAAUGGAUCCACAUCUACGAAUUC…UUCACUGCAGACUUGACGAAGCUG
Outline: as §1

Sequence | self-aminoacylation (biotinyl-Phe-oxazolone) | self-aminoacylation (biotinyl-Ile-oxazolone) | self-aminoacylation (biotinyl-Met-oxazolone) | self-aminoacylation (biotinyl-Trp-oxazolone) | self-aminoacylation (biotinyl-Val-oxazolone) | self-aminoacylation (biotinyl-Leu-oxazolone)
CCGCACUGCAAGCAAUCGGUC [Fam1B.1 aminoacylation ribozyme variant] | 1 | 1.52 | 1.21 | 1.42 | 1.81 | 1.17
CCGCACUUCAAGCACUCGGUC [Fam1B.1 aminoacylation ribozyme variant] | 1.93 | 1.38 | 1.44 | 1.55 | 1.79 | 1.64
CCGCACUUCAAGCAUUCGGUC [Fam1B.1 aminoacylation ribozyme variant] | 1.88 | 2.17 | 1.85 | 1.76 | 2.28 | 1.62
CCGCACUUCAGGCAAUCGGUC [Fam1B.1 aminoacylation ribozyme variant] | 6.33 | 1.76 | 1.98 | 2.88 | 2.87 | 2.33
CCGGACUUCAAGCAAUCGGUC [Fam1B.1 aminoacylation ribozyme variant] | 39.3 | 1.5 | 1.31 | 26.3 | 1.71 | 2.03
CCUCAAUUCAAGCAAUCGGUC [Fam1B.1 aminoacylation ribozyme variant] | 6.19 | 1.07 | 0.916 | 3.57 | 0.943 | 1.04
CCUCACAUCAAGCAAUCGGUC [Fam1B.1 aminoacylation ribozyme variant] | 1.77 | 0.87 | 0.749 | 1.05 | 0.973 | 0.726
CCUCACUUCAAGCAAUCGCUC [Fam1B.1 aminoacylation ribozyme variant] | 1.27 | 1.16 | 1.15 | 0.912 | 1.18 | 1.36
CCUCACUUCAAGCAAUCGGCC [Fam1B.1 aminoacylation ribozyme variant] | 5.49 | 1.9 | 1.53 | 5.38 | 2.39 | 1.59
CCUCACUUCAAGCAAUCGGUC [Fam1B.1 aminoacylation ribozyme variant] | 55.7 | 1.07 | 1.07 | 22.4 | 1.21 | 1.58
CCUCACUUCAAGCAAUCGGUU [Fam1B.1 aminoacylation ribozyme variant] | 9.36 | 1.34 | 1.45 | 6.83 | 1.61 | 1.7
CCUCACUUCAAGCAAUCUGUC [Fam1B.1 aminoacylation ribozyme variant] | 1.03 | 0.458 | 0.343 | 0.563 | 0.515 | 0.313
CCUCACUUCAAGCAAUUGGUC [Fam1B.1 aminoacylation ribozyme variant] | 1.67 | 0.654 | 0.562 | 0.673 | 0.606 | 0.506
CCUCACUUCAGGCAAUCGGUC [Fam1B.1 aminoacylation ribozyme variant] | 1.59 | 0.856 | 0.951 | 0.952 | 0.932 | 0.947
CCUCACUUCGAGCAAUCGGUC [Fam1B.1 aminoacylation ribozyme variant] | 2.23 | 1.08 | 0.881 | 1.16 | 1.04 | 1.04
CCUCAGUUCAAGCAAUCGGUC [Fam1B.1 aminoacylation ribozyme variant] | 5.46 | 1.12 | 1.17 | 3.37 | 1.03 | 1.36
CGACACAUCAAGCAAUCGGUC [Fam1B.1 aminoacylation ribozyme variant] | 1.47 | 1.01 | 0.811 | 0.828 | 1.13 | 1.09
CGACACUACAAGCAAUCGGUC [Fam1B.1 aminoacylation ribozyme variant] | 0.638 | 0.935 | 0.769 | 0.675 | 1 | 0.755
CGACACUUCAACCAAUCGGUC [Fam1B.1 aminoacylation ribozyme variant] | 18.2 | 1.38 | 1.61 | 13.4 | 1.6 | 1.65
CGACACUUCAAGCAAACGGUC [Fam1B.1 aminoacylation ribozyme variant] | 0.979 | 0.814 | 0.687 | 0.612 | 0.76 | 0.537
CGACACUUCAAGCAAUCGGCC [Fam1B.1 aminoacylation ribozyme variant] | 3.39 | 3.11 | 1.79 | 3.53 | 3.32 | 2.84
CGACACUUCAAGGAAUCGGUC [Fam1B.1 aminoacylation ribozyme variant] | 3.19 | 2.39 | 1.42 | 1.84 | 1.73 | 1.89
CGACAUUUCAAGCAAUCGGUC [Fam1B.1 aminoacylation ribozyme variant] | 1.28 | 1.18 | 1.09 | 1.33 | 1.17 | 1.06
CGACGUCAAACAAUCGGUCUG [Fam1A.1 aminoacylation ribozyme variant] | 4.02 | 1.25 | 1.84 | 1.82 | 1.66 | 1.24
CGACUACAAACAAUCGGUCUG [Fam1A.1 aminoacylation ribozyme variant] | 2.44 | 1.09 | 1.22 | 1.31 | 1.15 | 0.926
CGACUUCAAACAAUCAGUCUG [Fam1A.1 aminoacylation ribozyme variant] | 28.2 | 0.938 | 1.01 | 10.2 | 0.893 | 1.27

Sequence | self-aminoacylation (biotinyl-Phe-oxazolone) | self-aminoacylation (biotinyl-Ile-oxazolone) | self-aminoacylation (biotinyl-Met-oxazolone) | self-aminoacylation (biotinyl-Trp-oxazolone) | self-aminoacylation (biotinyl-Val-oxazolone) | self-aminoacylation (biotinyl-Leu-oxazolone)
CGACUUCAAACAAUCGGUAUG [Fam1A.1 aminoacylation ribozyme variant] | 10.8 | 1.09 | 1.16 | 5.6 | 1.28 | 1.3
CGACUUCAAACAAUCGGUCUC [Fam1A.1 aminoacylation ribozyme variant] | 53.8 | 1.52 | 1.59 | 31.1 | 1.35 | 1.99
CGACUUCAAACAAUCGGUCUU [Fam1A.1 aminoacylation ribozyme variant] | 18.2 | 1.64 | 1.26 | 12.7 | 1.71 | 1.77
CGACUUCAAACAAUUGGUCUG [Fam1A.1 aminoacylation ribozyme variant] | 1.57 | 1.06 | 0.91 | 1.25 | 0.891 | 0.999
CUAAUUCAAACAAACGGUCUG [Fam1A.1 aminoacylation ribozyme variant] | 0.687 | 0.823 | 0.616 | 0.543 | 0.917 | 0.561
CUAAUUCAAACAAUCGAUCUG [Fam1A.1 aminoacylation ribozyme variant] | 0.72 | 0.604 | 0.43 | 0.361 | 0.561 | 0.544
CUAAUUCAAACAAUCGGUUUG [Fam1A.1 aminoacylation ribozyme variant] | 3.96 | 0.802 | 0.701 | 2.78 | 0.724 | 0.696
CUACACUUCAAGCAAUCGGGC [Fam1B.1 aminoacylation ribozyme variant] | 0.999 | 1.48 | 1.95 | 2.02 | 1.42 | 1.27
CUACACUUCAAGCAAUGGGUC [Fam1B.1 aminoacylation ribozyme variant] | 0.544 | 0.65 | 0.494 | 0.47 | 0.536 | 0.542
CUACAUCAAAAAAUCGGUCUG [Fam1A.1 aminoacylation ribozyme variant] | 1.35 | 0.831 | 0.712 | 0.753 | 0.745 | 0.633
CUACAUCAAACAAUCGCUCUG [Fam1A.1 aminoacylation ribozyme variant] | 0.457 | 0.803 | 0.777 | 0.67 | 0.878 | 0.89
CUACAUCAAACAAUCGGGCUG [Fam1A.1 aminoacylation ribozyme variant] | 0.764 | 1.36 | 1.44 | 1.29 | 1.3 | 0.965
CUACAUCAAACAAUCGGUCUG [Fam1A.1 aminoacylation ribozyme variant] | 2.27 | 0.799 | 0.759 | 1.41 | 0.82 | 0.736
CUACAUCAAACAAUCGGUCUU [Fam1A.1 aminoacylation ribozyme variant] | 1.45 | 0.69 | 0.791 | 1.25 | 0.748 | 0.615
CUACAUCAAACAAUCUGUCUG [Fam1A.1 aminoacylation ribozyme variant] | 0.795 | 0.722 | 0.533 | 0.497 | 0.736 | 0.624
CUACAUCAAACACUCGGUCUG [Fam1A.1 aminoacylation ribozyme variant] | 3.01 | 1.03 | 1.03 | 1.11 | 1.26 | 0.978
CUACAUCAAAUAAUCGGUCUG [Fam1A.1 aminoacylation ribozyme variant] | 1.42 | 0.801 | 0.804 | 0.824 | 0.864 | 0.717
CUACAUUAAACAAUCGGUCUG [Fam1A.1 aminoacylation ribozyme variant] | 0.647 | 0.992 | 1.14 | 0.75 | 0.819 | 0.898
CUACAUUUCAAGCAAUCGGUC [Fam1B.1 aminoacylation ribozyme variant] | 2.41 | 0.887 | 0.748 | 1.45 | 0.849 | 0.705
CUACCUAAAACAAUCGGUCUG [Fam1A.1 aminoacylation ribozyme variant] | 0.787 | 0.883 | 0.761 | 0.697 | 0.991 | 0.624
CUACCUCAAACAAUCGCUCUG [Fam1A.1 aminoacylation ribozyme variant] | 0.589 | 0.818 | 0.85 | 1.83 | 1.17 | 1.27
CUACCUCAAACACUCGGUCUG [Fam1A.1 aminoacylation ribozyme variant] | 1.74 | 1.22 | 1.08 | 1.93 | 1.6 | 1.31
CUACCUCAAACGAUCGGUCUG [Fam1A.1 aminoacylation ribozyme variant] | 1.42 | 0.987 | 1 | 0.954 | 0.761 | 1.03
CUACCUCAAAUAAUCGGUCUG [Fam1A.1 aminoacylation ribozyme variant] | 1.1 | 1.05 | 1.08 | 1.23 | 0.863 | 1.12
CUACGUAAAACAAUCGGUCUG [Fam1A.1 aminoacylation ribozyme variant] | 1.38 | 1.18 | 0.999 | 0.819 | 0.999 | 0.755

— the supplement of paper PMC9233669
